Source: paper PMC9728169, “Enzymatic Biotransformation of Ginsenoside Rb2 into Rd by Recombinant α-L-Arabinopyranosidase from Blastococcus saxobsidens” (Journal of Microbiology and Biotechnology, 2019)

Substrate: [H][C@@]1(O[C@@H]2[C@@H](O)[C@H](O)[C@@H](CO)O[C@@]2([H])O[C@H]2CC[C@]3(C)[C@@]4([H])C[C@@H](O)[C@]5([H])[C@@]([H])([C@](C)(CCC=C(C)C)O[C@@H]6O[C@H](CO[C@@H]7OC[C@H](O)[C@H](O)[C@H]7O)[C@@H](O)[C@H](O)[C@H]6O)CC[C@@]5(C)[C@]4(C)CC[C@@]3([H])C2(C)C)O[C@H](CO)[C@@H](O)[C@H](O)[C@H]1O
Experiment: hydrolysis of arabinopyranose moiety of Rb2 (kinetic read-out not detailed)
Type: biochemical, Blastococcus saxobsidens
Conditions: enzyme 10 μg/ml; substrate range 0.1 mM to 5 mM as printed (unit μM doubtful); pH and temperature not stated for this constant; unit of the source corrected

B1: AbpBs (α-L-arabinopyranosidase) (Blastococcus saxobsidens) (protein)
chain: MRRIPFNRGWETRAHANFFAEMHGAAAPWQPVTLPHDAALGRTRDAANGAGSGYVPGGVYEYRTTLAAPAEYRDRRVLLEFEGVYRTAMVYVNGSLAGSWATGYTGFVVDLDDHLRYGGDNEIRVVCRAHQDSRWYSGAGIHRPVHLVVGPLTHLALDGVRVTTTEVDAEFAVVEVATTVEHDGRGLRTLELVTEVRDGEGSAVATATSPVTVLPGEPAVVRQRLLLPTPALWGPDSPSLYTAAVVLRDGGTDVDDDAVSFGVRTLSLDPERGLRINGEPIKLRGACVHSDNGVLGAATIGRAEERRVQLLKEAGFNALRSAHNPMSRAMLDACDRYGVLVMDELTDVWTESKTDFDAALDFPQWWERDVEAMVAKDVNHPSVVFYSIGNEIPEVAKPHGAVWSRRLAEKVRALDGTRFVTNGINAMLAVIGEAKAAEEQAGINTMLTDMGAFMDELSASELVATRTAEAYDVLDAAGMNYMEARYQLDRTLFPRRVIVGAETFAGKIDRLWRLVLDHPHVIGDFTWTGWDYLGEAGVGRVAAADDPTAGQFGAPYPWLLAHVGDIDITGHRRPASYYREIVFGRRRDPYIAVLRPERHGRELSATPWAWSDTVGSWSWAGAEEKPVTVEVYSDADEVELLLDGTSLGTAKAGEANRFRAAFEVTYAPGELTAVSRTGGQETGRCSLRSATGPLALAAAADRPVVRADDTDLAHVTLTLEDADGVVALGVDREVTVTVEGPGVLQGFGSAAPATEESYLDDVHTTFDGRALAVVRPTGAGTITLTATAPGCPPVSLGIEAR
notes: pGEX-4T-1 N-terminal GST fusion in E. coli BL21 (DE3), GST removed by thrombin (purified enzyme); primer-encoded N-terminus MRRIPF
- Km: 920 µM
